Data on 3 substances can be found in PMC11194501.

Test [1] has as its target MBP-Cep63N (fusion of MBP and the N-terminal fragment of Cep63) (human) (UniProt Q96MT8). As to the kind of experiment: ITC.
Test [2] has as its target Cep57N (Cep57 residues 56 to 251) (human) (UniProt Q86XR8). As to the kind of experiment: ITC. (ITC needs no label: the signal is the heat of the interaction.)
Test [3] has as its target Cep57S-KR (Cep57S with six Lys and Arg residues of the K/R motif replaced by Ala) (human) (UniProt Q86XR8). As to the kind of experiment: pull-down; His-tagged Cep57S held on a Ni-NTA spin column, 0.1 mg α/β-tubulin added, 4 °C; 1X PBS pH 8.0, 1 mM 2-mercaptoethanol, 20 mM imidazole, 0.1% Triton X100, 10% glycerol; eluted with 400 mM imidazole, SDS-PAGE.

pKd: −log10 of the molar value.

As for “Cep57N (Cep57 residues 56 to 251) (from UniProt Q86XR8 56-251) (domain or fragment)”, the pKd – broadly, the Kd on a negative log10 scale, so that one unit is a factor of ten – in test [1] is 6.22.
“MBP-Cep63N (fusion of MBP and the N-terminal fragment of Cep63) (from UniProt Q96MT8-2 1-541) (domain or fragment)”: in test [2], the pKd is 6.30 and the stoichiometry N (commonly the number of molecules, sites or subunits per partner or assembly) came to 0.6.
The substance “α/β-tubulin (from UniProt P02550 1-451; P02554 1-445) (complex)” registered a reduction of tubulin binding against Cep57S in test [3] of 65%.
